Data on one variant can be found in IntAct's records for PubMed 21763312.

The labels stand for the following.
B1: Protein virB8 (Agrobacterium tumefaciens (strain C58 / ATCC 33970)), P17798 (parent)
chain: MKGSEYALLVARETLAEHYKEVEAFQTARAKSARRLSKVIAAVATIAVLGNVAQAFTIATMVPLIRLVPVYLWIRPDGTVDSEVSVSRLPATQEEAVVNASLWEYVRLRESYDADTAQYAYDLVSNFSAPMVRQNYQQFFNYPNPTSPQVILGKHGRLEVEHIASNDVTPGVQQIRYKRTLIVDGKMPMASTWTATVRYEKVTSLPGRLRLTNPGGLVVTSYQTSEDTVSNAGHSEP
partner: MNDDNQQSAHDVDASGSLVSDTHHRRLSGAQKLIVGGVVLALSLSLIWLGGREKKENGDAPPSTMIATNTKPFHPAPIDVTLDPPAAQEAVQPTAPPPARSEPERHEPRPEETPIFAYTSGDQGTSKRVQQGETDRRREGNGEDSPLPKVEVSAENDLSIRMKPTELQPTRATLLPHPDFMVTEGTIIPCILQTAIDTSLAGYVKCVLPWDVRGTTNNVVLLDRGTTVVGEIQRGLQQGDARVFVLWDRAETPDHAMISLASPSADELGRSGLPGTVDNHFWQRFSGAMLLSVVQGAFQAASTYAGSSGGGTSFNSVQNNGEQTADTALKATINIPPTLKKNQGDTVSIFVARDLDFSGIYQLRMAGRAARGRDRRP

This assay covers variants of B1. The following applies: with virba_agrfc virB10, P17800.
For MKGSEYALLVARETLAEHYKEVEAFQTARAKSARRLSKVIAAVATIAVLGNVAQWFTIATMVPLIRLVPVYLWIRPDGTVDSEVSVSRLPATQEEAVVNASLWEYVRLRESYDADTAQYAYDLVSNFSAPMVRQNYQQFFNYPNPTSPQVILGKHGRLEVEHIASNDVTPGVQQIRYKRTLIVDGKMPMASTWTATVRYEKVTSLPGRLRLTNPGGLVVTSYQTSEDTVSNAGHSEP [A55W], the “effect of a mutation on the interaction” value was “increasing interaction”.
